Among the data in article PMC5016158 are impairment by ISO (10 uM) of the relaxation of HASM cells (endogenous receptors) to the TAS2R14 agonist FFA (100 uM), magnetic twisting cytometry values, retold here.

The target of the experiment is Lucy-Flag-rsstr3-TAS2R14-HSV (rat | human) (UniProt P30936).
Sequence of UniProt P30936 (P30936 whole entry): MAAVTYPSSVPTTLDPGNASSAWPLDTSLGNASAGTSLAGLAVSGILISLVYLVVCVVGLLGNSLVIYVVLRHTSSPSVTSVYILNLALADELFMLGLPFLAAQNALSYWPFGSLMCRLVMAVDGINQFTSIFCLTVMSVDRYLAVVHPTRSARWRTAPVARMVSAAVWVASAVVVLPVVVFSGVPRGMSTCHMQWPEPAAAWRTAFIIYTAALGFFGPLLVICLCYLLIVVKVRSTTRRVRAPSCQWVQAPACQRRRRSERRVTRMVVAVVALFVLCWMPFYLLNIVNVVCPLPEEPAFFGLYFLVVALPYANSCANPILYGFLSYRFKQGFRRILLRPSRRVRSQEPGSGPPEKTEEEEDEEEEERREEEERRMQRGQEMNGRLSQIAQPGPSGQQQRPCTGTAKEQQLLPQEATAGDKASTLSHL

“HA-β2AR (from UniProt P07550 1-413) (receptor)”: the impairment by ISO (10 uM) of the relaxation of HASM cells (endogenous receptors) to the TAS2R14 agonist FFA (100 uM), magnetic twisting cytometry worked out at 50%.
